Data set [1] addresses T1, LEF-6 (non-phosphorylated, E. coli) (Autographa californica multiple …, UniProt S5G646 1-173).
T1 sequence: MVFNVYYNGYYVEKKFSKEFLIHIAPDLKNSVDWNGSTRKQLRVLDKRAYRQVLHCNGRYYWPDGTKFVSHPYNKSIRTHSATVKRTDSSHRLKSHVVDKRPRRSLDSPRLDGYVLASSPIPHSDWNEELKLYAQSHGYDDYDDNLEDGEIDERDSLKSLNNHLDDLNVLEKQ
The data set can be described thus: fluorescence anisotropy; Anisotropy: 20 mM Tris-HCl pH 7.5, 20 mM NaCl, 5 nM FAM-ssRNA, 28 C; EMSA: 10 mM Tris pH 7.5, 20 mM KCl, 1 mM MgCl2, 1 mM DTT, 20 uM RNA, 22 C, 1% agarose/TAE. Conditions: protein: recombinant, tags: His.

Data set [2] addresses T2, LEF6 1-90 (host not stated) (Autographa californica multiple …, UniProt S5G646 1-90).
T2 sequence: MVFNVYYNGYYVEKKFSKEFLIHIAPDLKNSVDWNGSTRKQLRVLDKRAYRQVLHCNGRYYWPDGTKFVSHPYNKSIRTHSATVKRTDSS
The data set is described as above. Conditions: protein: recombinant, tags: His.

Data set [3] addresses T3, LEF6 82-173 (Autographa californica multiple …, UniProt S5G646 82-173).
T3 sequence: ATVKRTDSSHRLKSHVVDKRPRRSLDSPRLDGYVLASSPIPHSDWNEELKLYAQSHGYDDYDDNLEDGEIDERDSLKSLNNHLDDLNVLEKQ
The data set can be described thus: EMSA; Anisotropy: 20 mM Tris-HCl pH 7.5, 20 mM NaCl, 5 nM FAM-ssRNA, 28 C; EMSA: 10 mM Tris pH 7.5, 20 mM KCl, 1 mM MgCl2, 1 mM DTT, 20 uM RNA, 22 C, 1% agarose/TAE. Particulars: protein: recombinant; tags: His; label: FAM (anisotropy); EMSA detected by ethidium bromide.

The target of data set [4] is T4, LEF6 1-90 (E. coli) (Autographa californica multiple …, UniProt S5G646 1-90).
T4 sequence: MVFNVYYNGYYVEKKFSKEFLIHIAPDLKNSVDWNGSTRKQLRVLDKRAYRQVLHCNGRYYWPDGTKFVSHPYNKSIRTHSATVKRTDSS
The description is as above. Conditions: protein: recombinant; tags: His; label: FAM (anisotropy); EMSA detected by ethidium bromide.

For data set [5], the target named is T5, LEF6 1-90 (High Five) (Autographa californica multiple …, UniProt S5G646 1-90).
T5 sequence: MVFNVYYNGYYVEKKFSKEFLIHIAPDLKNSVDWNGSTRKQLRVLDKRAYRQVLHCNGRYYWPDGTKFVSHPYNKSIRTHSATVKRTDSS
The data set is described as above. Particulars: protein: recombinant; tags: His; label: FAM (anisotropy); EMSA detected by ethidium bromide.

[6] abbreviates: label: FAM (anisotropy), EMSA detected by ethidium bromide.

On to CGGUUUGCCCGCUCAAUUGACCGAUCU (ssRNA) [p10 ssRNA], for which the binding result in data set [1] (setting [6]) and in data set [2] (setting [6]) was “binds” throughout.

As for UUAUAACCAUCCCACCCCGGAUGGAGC (ssRNA) [ie1 ssRNA], the binding result in data set [1] (label: FAM) and in data set [2] (label: FAM) was “binds” each time.

Take GACAGGUCGCCGAAGUUACAGAACACG (ssRNA) [p6.9 ssRNA]: the binding result is recorded as “no binding” in data set [3]; “binds” in data set [4]; “binds” in data set [5]; “binds” in data set [1] (setting [6]); “binds” in data set [2] (setting [6]).

In the case of UUUUUUUUUUCUCUGCUCGACG (ssRNA) [unrelated ssRNA], the binding result in data set [1] (label: FAM) and in data set [2] (label: FAM) was “binds” in each case.
